What was measured:
[1] = target: … SENSING 2 (FLS2) of soybean (soybean); assay: cell-based or functional assay
[2] = target: FLS2 receptor of Arabidopsis thaliana (Arabidopsis thaliana) (UniProt Q9FL28); assay: cell-based or functional assay
FLS2 receptor of Arabidopsis thaliana (Arabidopsis thaliana), sequence (Q9FL28 24-1173): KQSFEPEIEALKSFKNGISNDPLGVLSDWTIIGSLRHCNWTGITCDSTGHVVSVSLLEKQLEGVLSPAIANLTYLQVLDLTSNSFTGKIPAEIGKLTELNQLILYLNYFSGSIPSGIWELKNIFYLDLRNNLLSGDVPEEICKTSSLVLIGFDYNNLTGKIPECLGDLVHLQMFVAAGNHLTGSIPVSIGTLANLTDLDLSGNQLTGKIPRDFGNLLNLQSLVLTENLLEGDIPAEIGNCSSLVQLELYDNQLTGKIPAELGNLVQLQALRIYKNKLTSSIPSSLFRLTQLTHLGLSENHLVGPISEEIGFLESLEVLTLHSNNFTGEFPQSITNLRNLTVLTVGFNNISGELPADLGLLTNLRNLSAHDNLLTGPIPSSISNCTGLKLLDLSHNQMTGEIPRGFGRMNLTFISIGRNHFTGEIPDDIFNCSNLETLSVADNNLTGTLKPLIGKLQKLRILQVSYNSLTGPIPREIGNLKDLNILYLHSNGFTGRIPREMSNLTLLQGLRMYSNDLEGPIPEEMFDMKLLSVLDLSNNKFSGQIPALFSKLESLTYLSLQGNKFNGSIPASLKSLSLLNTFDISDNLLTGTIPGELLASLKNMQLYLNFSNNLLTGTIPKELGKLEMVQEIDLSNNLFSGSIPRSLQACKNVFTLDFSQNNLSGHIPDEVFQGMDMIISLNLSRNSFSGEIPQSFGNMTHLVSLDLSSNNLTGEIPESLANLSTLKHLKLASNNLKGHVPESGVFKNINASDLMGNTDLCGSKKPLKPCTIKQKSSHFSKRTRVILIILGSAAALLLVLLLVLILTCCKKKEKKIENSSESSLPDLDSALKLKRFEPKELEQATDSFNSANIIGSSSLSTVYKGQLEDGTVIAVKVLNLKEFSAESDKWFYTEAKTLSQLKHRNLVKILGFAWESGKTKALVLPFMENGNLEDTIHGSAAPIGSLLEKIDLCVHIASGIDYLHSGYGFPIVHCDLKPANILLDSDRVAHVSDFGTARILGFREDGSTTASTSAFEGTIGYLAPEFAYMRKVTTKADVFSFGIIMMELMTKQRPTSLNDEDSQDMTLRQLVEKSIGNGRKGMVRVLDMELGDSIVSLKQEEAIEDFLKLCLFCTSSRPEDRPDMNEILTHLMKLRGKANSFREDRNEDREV

DRLSSGKRINSASDDAAGLAIA [Bt.4Q7Flg22]
% Activity (compared to unmodified Bt.4Q7Flg22), soybean ROS assay [1]: 100%
ROS activity in Arabidopsis leaf tissue, Average RLU value, 100 nM [2]: 258000 RLU
ROS activity in Arabidopsis leaf tissue, fold increase over mock treatment, 100 nM [2]: 3.1 fold

Ac-DRLSSGKRINSASDDAAGLAIA-NH2 [Bt.4Q7Flg22 Mod-1]
% Activity (compared to unmodified Bt.4Q7Flg22), soybean ROS assay [1]: 106%

— patent US20200170258A1
